Biological target: the molecule itself
Experiment: SEC

Protein | stoichiometry N
NaKΔ18 (domain or fragment, Bacillus cereus, UniProt Q81HW2 19-114, looked up) WKDKEFQVLFVLTILTLISGTIFYSTVEGLRPIDALYFSVVTLTTVGDGNFSPQTDFGKIFTILYIFIGIGLVFGFIHKLAVNVQLPSILSNRKKE | 4
L35A/L61A NaKΔ18 (domain or fragment, Bacillus cereus, UniProt Q81HW2 19-114, looked up) WKDKEFQVLFVLTILTAISGTIFYSTVEGLRPIDALYFSVVTATTVGDGNFSPQTDFGKIFTILYIFIGIGLVFGFIHKLAVNVQLPSILSNRKKE | 4
L35A NaKΔ18 (domain or fragment, Bacillus cereus, UniProt Q81HW2 19-114, looked up) WKDKEFQVLFVLTILTAISGTIFYSTVEGLRPIDALYFSVVTLTTVGDGNFSPQTDFGKIFTILYIFIGIGLVFGFIHKLAVNVQLPSILSNRKKE | 4
L61A NaKΔ18 (domain or fragment, Bacillus cereus, UniProt Q81HW2 19-114, looked up) WKDKEFQVLFVLTILTLISGTIFYSTVEGLRPIDALYFSVVTATTVGDGNFSPQTDFGKIFTILYIFIGIGLVFGFIHKLAVNVQLPSILSNRKKE | 4
L61T NaKΔ18 (domain or fragment, Bacillus cereus, UniProt Q81HW2 19-114, looked up) WKDKEFQVLFVLTILTLISGTIFYSTVEGLRPIDALYFSVVTTTTVGDGNFSPQTDFGKIFTILYIFIGIGLVFGFIHKLAVNVQLPSILSNRKKE | 4

Source: paper PMC9640265 (The Journal of General Physiology, 2022)
